Reference: article PMC4513130, “Neuronal Calcium Sensor-1 Binds the D2 Dopamine Receptor and G-protein-coupled Receptor Kinase 1 (GRK1) Peptides Using Different Modes of Interactions” (The Journal of Biological Chemistry, 2015)

What was measured:
[1] = molecular target: GRK1 peptide (N terminus of G-protein-coupled receptor kinase 1, residues 1-25); assay: crystal structure; NCS-1 (1 mM) with 2-fold excess of GRK1 peptide; 0.12 M alcohols, 0.1 M HEPES/MOPS pH 7.5, 30% PEGMME 550 and PEG 20000, 20 °C; 2.30 Å
[2] = molecular target: D2 receptor peptide (D2R peptide) (human); assay: ITC; 1 mM Ca2+/NCS-1 in the syringe titrated into 100 uM D2R peptide in the cell, 25 °C, 50 mM Tris-HCl, 50 mM NaCl, 5 mM CaCl2, pH 7.5; fitted to a sequential model and to a two-site nonsequential model with stoichiometry fixed at 1:2 NCS-1:peptide
[3] = molecular target: D2 receptor peptide (D2R peptide) (human); assay: crystal structure; NCS-1 (1 mM) with 2-fold excess of D2R peptide; 150 mM Tris-HCl pH 8.0, 8% ethylene glycol, 20% PEG 5000, 20 °C; 2.19 Å

Rattus norvegicus neuronal calcium sensor-1 (NCS-1), full-length, Ca2+-bound, sequence (P62168 whole entry): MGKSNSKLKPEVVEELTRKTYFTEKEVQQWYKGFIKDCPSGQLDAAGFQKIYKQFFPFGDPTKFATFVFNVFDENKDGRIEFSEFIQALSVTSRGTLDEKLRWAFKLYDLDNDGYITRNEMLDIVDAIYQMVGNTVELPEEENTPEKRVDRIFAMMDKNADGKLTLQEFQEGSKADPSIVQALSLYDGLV
GRK1 peptide (N terminus of G-protein-coupled receptor kinase 1, residues 1-25), sequence (Q15835 1-25): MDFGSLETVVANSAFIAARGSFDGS

In the case of “Rattus norvegicus neuronal calcium sensor-1 (NCS-1), full-length, Ca2+-bound (from UniProt P62168 1-190) (natural protein)”, the stoichiometry N [1] is reported as 1, the Kd, sequential binding model, first value [2] is reported as 43 µM and the Kd, sequential binding model, second value [2] is reported as 58 µM. For the same substance, the dH [2] was -2.06 kcal/mol and the stoichiometry N [3] was 2.
